Source: patent US20130116129, “METHOD FOR DETECTING TARGET MOLECULES” (NATIONAL INSTITUTE OF ADVANCED INDUSTRIAL SCIENCE AND …, published 2013)

Columns and labels:
streptavidin [1] = biological target: T1, streptavidin (UniProt P22629 P22629:25-183); test: footprint; S1 nuclease protection; 50 mM NaCl, 20 mM MgCl2, Tris pH 7.5; ratio to control varies with streptavidin concentration; settings: tags: Roche (free); Dynabeads streptavidin (Invitrogen) for bead selections; chain copies: 4
Experimental: (§1) Subsequently, 1 μl of S1 nuclease (22.5 units/μl) (Takara, Japan) was added to each tube followed by 20-minutes reaction at 37° C., and then the reaction was stopped by heating at 98° C. for 3 minutes.
(§2) PCR was performed, using a thermal circular (Biometra), after keeping the temperature at 96° C. for 1 minute, for 1 cycle of 95° C. for 15 seconds, 46° C. for 20 seconds, and 72° C. for 60 seconds, then 40 cycles each consisting of 95° C. for 15 seconds and 72° C. for 60 seconds. As a PCR reagent, KOD-Neo-plus (Toyobo Co., Ltd., Japan) was used.
(§3) After PCR, products were digested with the Msp I restriction enzyme. […] Samples after digestion were subjected to gel electrophoresis, so that the ratio of the amount of the streptavidin aptamer to the amount of the control aptamer could be determined.

streptavidin [2] = biological target: T1, streptavidin; test: footprint; stated non-binding control in S1 nuclease protection assay; settings: tags: Roche (free); Dynabeads streptavidin (Invitrogen) for bead selections; chain copies: 4
Experimental: as §1, §2, §3

T1 sequence (P22629 25-183, one chain of several): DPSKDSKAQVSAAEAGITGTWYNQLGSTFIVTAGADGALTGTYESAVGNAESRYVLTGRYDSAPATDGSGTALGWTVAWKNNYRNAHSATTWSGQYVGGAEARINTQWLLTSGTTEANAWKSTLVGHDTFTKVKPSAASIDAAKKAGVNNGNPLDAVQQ

Binder	binding result (streptavidin [1])	binding result (streptavidin [2])
TCTGTGAGACGACGCACCGGTCGCAGGTTTTGTCTCACAG (ssDNA) [streptavidin aptamer]	binds	–
TCTGTGAGACGACGCACCGACCGCAGGTTTTGTCTCACAG (ssDNA) [control aptamer]	–	no binding
